How the values were obtained:
[1] = molecular target: T1, full-length mouse Reelin protein (mouse, UniProt Q60841 27-3461); assay: cell adhesion assay after allowing for about 20% background, CR-50 at 200 µg/ml
T1 construct: whole, on cells; Secreted protein; Forms homophilic complexes of unstated size; also called native Reelin; full-length Reelin

[2] = molecular target: T1, full-length mouse Reelin protein; assay: cell adhesion assay after allowing for about 20% background, CR-50 at 20 µg/ml
[3] = molecular target: T1, full-length mouse Reelin protein; assay: cell adhesion assay after allowing for about 20% background, CR-50 at 50 µg/ml
[4] = molecular target: the molecule itself; assay: analytical gel filtration (Superdex-200), 0.15 M NaCl, pH 7.4, 40 µM sample
Procedure: A FPLC gel filtration chromatography system (Pharmacia) was used for chromatography. This system was controlled by a computer FPLC director program (Pharmacia). The sample was loaded onto a Superdex-200 gel filtration column (separation range: 10 kDa to 600 kDa, Pharmacia), which had been pre-equilibrated with a buffer containing 20 mM sodium phosphate, pH 7.4, 0.15 M NaCl, and 5 mM DTT, and then eluted at flow rate of 0.5 ml/min. The sample concentration was adjusted to 40 μM.

[5] = molecular target: T1, full-length mouse Reelin protein; assay: cell adhesion assay: Reelin-presenting cells on CR-50 epitope-coated dishes (200 or 50 µg/ml)
Procedure: (A) Reelin-presenting cells on CR-50 epitope-coated dish (200 μg/ml). (B) Reelin-presenting cells on control-coated dish. (C) Histograms showing cell numbers in cell adhesion assay on CR-50 epitope-coated dishes (200 or 50 μg/ml) that are normalized to the control.
The former supernatant contained full-length Reelin molecules and the latter one contained no Reelin. After nitrocellulose/methanol treatment, Petri dishes were coated overnight with each supernatant. Petri dishes coated with the CR-50 epitope were prepared by overnight incubation with recombinant CR-50 epitope proteins produced from E. coli cells. […] After incubation for 2 hours, each plate was washed with panning buffer (PBS containing 10% v/v FCS) 7 to 10 times until no floating cells remained. To examine the effect of CR-50 antibody on cell adhesion, the antibody was added to the culture medium from the beginning of incubation. Then, the cells remaining on the dishes were observed by a microscope connected to a computer-controlled camera. This experiment was repeated five times, and for each dish, five microscopic fields were scored.

T1 sequence (Q60841 27-3461): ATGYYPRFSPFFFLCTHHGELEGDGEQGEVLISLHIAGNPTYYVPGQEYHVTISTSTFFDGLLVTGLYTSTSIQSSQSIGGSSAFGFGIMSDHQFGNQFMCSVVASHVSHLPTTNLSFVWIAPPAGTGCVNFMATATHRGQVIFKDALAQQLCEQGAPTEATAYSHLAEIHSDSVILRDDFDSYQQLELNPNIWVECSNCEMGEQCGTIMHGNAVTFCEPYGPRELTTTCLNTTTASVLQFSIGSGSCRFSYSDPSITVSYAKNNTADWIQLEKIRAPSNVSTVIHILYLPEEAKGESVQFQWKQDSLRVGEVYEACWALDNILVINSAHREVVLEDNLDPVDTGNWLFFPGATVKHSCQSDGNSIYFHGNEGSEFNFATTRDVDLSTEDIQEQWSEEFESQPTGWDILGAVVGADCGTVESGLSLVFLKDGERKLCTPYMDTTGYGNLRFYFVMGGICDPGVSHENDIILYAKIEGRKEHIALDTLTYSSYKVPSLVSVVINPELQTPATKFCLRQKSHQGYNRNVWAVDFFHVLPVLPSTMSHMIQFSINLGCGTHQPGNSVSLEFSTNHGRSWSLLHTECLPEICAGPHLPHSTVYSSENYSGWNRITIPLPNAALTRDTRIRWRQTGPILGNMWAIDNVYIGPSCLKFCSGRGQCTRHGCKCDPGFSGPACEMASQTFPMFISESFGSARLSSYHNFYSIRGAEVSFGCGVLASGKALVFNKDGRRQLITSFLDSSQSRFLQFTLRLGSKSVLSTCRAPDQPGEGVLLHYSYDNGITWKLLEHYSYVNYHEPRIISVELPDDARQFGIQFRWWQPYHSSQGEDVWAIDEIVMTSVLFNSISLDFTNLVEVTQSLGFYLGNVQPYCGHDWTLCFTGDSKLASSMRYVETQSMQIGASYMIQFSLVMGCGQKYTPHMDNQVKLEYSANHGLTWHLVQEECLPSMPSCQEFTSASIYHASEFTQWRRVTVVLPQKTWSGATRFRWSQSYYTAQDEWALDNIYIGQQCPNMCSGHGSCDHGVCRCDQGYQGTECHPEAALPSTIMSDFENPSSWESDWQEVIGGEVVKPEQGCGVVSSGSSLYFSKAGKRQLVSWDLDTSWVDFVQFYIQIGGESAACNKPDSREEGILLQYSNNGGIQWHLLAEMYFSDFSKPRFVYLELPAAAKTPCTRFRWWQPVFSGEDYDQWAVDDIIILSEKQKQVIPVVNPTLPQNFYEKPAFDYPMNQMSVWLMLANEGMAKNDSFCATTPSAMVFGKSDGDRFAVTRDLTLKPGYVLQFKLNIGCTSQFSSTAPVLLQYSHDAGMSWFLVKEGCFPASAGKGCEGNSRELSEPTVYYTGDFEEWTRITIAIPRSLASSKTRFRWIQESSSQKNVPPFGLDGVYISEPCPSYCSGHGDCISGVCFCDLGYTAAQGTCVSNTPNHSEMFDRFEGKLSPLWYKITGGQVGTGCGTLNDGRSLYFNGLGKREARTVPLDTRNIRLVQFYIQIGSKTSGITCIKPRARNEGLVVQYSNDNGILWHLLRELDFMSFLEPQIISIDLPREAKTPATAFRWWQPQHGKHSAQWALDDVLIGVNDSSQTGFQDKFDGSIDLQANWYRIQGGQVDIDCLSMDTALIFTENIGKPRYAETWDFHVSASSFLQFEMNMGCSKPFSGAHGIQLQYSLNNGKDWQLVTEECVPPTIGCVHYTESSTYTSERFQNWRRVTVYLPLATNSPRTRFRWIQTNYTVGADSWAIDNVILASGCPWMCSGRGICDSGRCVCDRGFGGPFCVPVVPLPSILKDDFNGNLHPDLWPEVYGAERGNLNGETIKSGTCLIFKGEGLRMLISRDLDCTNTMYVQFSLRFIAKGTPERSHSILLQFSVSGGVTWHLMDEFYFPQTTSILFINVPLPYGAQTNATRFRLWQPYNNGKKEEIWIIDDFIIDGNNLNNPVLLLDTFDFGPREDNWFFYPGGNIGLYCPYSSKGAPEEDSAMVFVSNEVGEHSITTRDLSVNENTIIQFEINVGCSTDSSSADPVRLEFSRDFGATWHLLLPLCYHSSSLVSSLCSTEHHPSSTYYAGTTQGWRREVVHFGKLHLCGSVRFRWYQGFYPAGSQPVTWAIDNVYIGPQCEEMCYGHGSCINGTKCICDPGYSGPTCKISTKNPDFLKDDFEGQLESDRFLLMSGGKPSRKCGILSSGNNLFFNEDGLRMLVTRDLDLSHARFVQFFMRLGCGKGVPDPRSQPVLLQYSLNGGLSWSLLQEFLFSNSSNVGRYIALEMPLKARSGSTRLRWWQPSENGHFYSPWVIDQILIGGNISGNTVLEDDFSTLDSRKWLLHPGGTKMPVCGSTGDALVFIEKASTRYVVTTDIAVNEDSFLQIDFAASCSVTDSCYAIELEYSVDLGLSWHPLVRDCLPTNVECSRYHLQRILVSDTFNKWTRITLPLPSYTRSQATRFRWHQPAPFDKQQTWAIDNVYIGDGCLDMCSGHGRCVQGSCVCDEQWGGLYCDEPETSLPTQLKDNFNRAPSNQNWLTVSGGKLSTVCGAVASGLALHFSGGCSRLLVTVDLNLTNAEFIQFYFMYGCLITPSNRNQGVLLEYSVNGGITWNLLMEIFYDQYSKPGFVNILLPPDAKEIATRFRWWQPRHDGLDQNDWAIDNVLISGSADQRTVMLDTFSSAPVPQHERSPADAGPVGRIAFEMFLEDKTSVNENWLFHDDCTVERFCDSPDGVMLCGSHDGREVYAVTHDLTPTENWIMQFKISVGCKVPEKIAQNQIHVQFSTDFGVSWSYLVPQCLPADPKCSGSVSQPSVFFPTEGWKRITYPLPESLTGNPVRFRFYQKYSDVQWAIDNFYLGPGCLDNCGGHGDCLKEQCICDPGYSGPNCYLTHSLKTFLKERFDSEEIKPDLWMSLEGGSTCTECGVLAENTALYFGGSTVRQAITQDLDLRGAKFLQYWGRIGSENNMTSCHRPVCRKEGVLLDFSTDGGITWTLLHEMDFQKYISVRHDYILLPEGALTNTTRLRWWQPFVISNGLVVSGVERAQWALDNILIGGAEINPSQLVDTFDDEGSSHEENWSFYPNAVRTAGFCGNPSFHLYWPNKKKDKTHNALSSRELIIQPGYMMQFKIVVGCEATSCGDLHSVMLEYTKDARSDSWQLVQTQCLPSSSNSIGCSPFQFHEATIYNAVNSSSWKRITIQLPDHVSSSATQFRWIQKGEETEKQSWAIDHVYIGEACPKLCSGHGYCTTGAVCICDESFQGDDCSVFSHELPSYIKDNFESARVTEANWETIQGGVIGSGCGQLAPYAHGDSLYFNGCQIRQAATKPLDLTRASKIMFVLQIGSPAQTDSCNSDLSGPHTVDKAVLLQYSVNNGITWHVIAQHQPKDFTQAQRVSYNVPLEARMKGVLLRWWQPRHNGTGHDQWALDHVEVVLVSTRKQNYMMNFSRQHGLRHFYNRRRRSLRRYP

CR-50 antibody
specific binding left, fraction of the control (fraction of specific binding) [1]: 0.1 | specific binding left, fraction of the control (fraction of specific binding) [2]: 0.33 | specific binding left, fraction of the control (fraction of specific binding) [3]: 0.25

B1: recombinant CR-50 epitope fragment of Reelin (residues 230-346) with C-terminal His-tag, from E. coli (other, not shown: small tags and cut ends)
chain: EQCGTIMHGNAVTFCEPYGPRELTTTCLNTTTASVLQFSIGSGSCRFSYSDPSITVSYAKNNTADWIQLEKIRAPSNVSTVIHILYLPEEAKGESVQFQWKQDSLRVGEVYEACWAL
notes: Under physiological conditions it forms a homopolymer of more than 600 kDa (more than 40 molecules of about 15 kDa)
binding result [4]: binds | binding result [5]: binds

From patent US20020137095A1 (RIKEN, published 2002)
